Molecular target: T1, RAPTOR (UniProt Q8N122 1-1335)
T1 construct: Endogenous protein in lysates of human cancer cell lines
Test: co-immunoprecipitation with anti-FAK from whole-cell lysates of HCT116 and MCF7 cells in mitosis, immunoblot with anti-RAPTOR
Experimental: The immunoprecipitates were washed and resolved by SDS-PAGE. For western blots: primary antibody: RICTOR, mTOR (Cell Signaling), Raptor, FAK, β1-integrin, TTC3 (AbCam).
Standard protocols were used for SDS-PAGE electrophoresis and the following primary antibodies: α-RICTOR, α-mTOR, Phospho-AKT-Ser473 (D9E; Cell Signaling Technology) and α-RAPTOR, α-FAK, α-β1-integrin, α-TTC3, Pan-AKT, and GAPDH (Abcam). For immunoprecipitation studies, cells were synchronized with 200 ng/mL of nocodazole for 12 hours and then released for 2 hours. Cells were rinsed with PBS, fixed with 0.37% formalde-hyde, and quenched with 0.25 mol/L glycine. Cell lysates were prepared in lysis buffer [1% Triton X-100, 150 mmol/L NaCl, 3 mmol/L MgCl, 40 mmol/L HEPES (pH 7.5), 50 mmol/L NaF, EDTA-free protease inhibitor and phosphatase inhibitor (Roche)] and centrifuged at 14,000×g for 10 minutes. Supernatant (250 μg) was incubated with the indicated antibodies [α-FAK (AbCam), α-RICTOR (Santa Cruz Biotechnology)], for 4 hours at 4° C. with rotation and then with 50 μL of a 50% slurry of protein G-sepharose (Roche) for 1 hour Immunoprecipitates were washed and resolved by SDS-PAGE electrophoresis.
To identify an upstream regulator that might activate mTORC2 signaling during asymmetric division, an immunoprecipitation approach was used to identify proteins that physically interact with the mTORC2 complex during mitosis. […]

T1 sequence (Q8N122 whole entry): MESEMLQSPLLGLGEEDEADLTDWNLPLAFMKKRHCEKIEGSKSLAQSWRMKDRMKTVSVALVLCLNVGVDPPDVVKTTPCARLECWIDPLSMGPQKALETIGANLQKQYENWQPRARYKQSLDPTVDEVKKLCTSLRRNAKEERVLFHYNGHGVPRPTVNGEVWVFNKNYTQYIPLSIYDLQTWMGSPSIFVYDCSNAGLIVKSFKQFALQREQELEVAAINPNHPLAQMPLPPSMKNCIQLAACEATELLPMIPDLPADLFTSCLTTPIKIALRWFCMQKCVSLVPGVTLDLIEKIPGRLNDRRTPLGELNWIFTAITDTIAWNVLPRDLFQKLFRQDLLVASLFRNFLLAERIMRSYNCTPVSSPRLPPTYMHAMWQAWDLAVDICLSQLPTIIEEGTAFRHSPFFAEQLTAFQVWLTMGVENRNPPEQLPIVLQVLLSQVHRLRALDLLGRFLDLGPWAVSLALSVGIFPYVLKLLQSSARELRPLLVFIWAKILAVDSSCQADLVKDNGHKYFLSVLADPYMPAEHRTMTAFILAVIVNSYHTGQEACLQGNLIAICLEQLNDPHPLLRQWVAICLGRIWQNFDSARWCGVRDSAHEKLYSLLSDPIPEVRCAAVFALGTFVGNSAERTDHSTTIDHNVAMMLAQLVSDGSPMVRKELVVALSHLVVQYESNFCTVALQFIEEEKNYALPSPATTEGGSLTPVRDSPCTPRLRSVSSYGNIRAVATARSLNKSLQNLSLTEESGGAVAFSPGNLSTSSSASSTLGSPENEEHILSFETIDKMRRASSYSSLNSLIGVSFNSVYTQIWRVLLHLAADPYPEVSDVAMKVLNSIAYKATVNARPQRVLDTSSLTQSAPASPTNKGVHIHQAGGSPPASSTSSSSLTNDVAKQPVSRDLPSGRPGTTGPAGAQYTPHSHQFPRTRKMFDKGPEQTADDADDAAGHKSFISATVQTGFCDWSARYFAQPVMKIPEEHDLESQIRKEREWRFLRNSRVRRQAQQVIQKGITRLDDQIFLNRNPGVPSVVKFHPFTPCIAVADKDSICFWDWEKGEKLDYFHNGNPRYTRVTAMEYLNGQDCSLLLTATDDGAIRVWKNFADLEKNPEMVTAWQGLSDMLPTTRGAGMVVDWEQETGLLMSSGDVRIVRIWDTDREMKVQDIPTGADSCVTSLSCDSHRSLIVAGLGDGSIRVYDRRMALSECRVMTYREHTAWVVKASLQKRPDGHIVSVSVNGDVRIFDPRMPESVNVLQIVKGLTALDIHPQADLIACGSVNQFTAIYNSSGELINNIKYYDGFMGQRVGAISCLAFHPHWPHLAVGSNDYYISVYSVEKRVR

- binding result: no binding
B1: focal adhesion kinase (FAK) (enzyme, human, UniProt Q05397 2-1052, looked up)
chain: AAAYLDPNLNHTPNSSTKTHLGTGMERSPGAMERVLKVFHYFESNSEPTTWASIIRHGDATDVRGIIQKIVDSHKVKHVACYGFRLSHLRSEEVHWLHVDMGVSSVREKYELAHPPEEWKYELRIRYLPKGFLNQFTEDKPTLNFFYQQVKSDYMLEIADQVDQEIALKLGCLEIRRSYWEMRGNALEKKSNYEVLEKDVGLKRFFPKSLLDSVKAKTLRKLIQQTFRQFANLNREESILKFFEILSPVYRFDKECFKCALGSSWIISVELAIGPEEGISYLTDKGCNPTHLADFTQVQTIQYSNSEDKDRKGMLQLKIAGAPEPLTVTAPSLTIAENMADLIDGYCRLVNGTSQSFIIRPQKEGERALPSIPKLANSEKQGMRTHAVSVSETDDYAEIIDEEDTYTMPSTRDYEIQRERIELGRCIGEGQFGDVHQGIYMSPENPALAVAIKTCKNCTSDSVREKFLQEALTMRQFDHPHIVKLIGVITENPVWIIMELCTLGELRSFLQVRKYSLDLASLILYAYQLSTALAYLESKRFVHRDIAARNVLVSSNDCVKLGDFGLSRYMEDSTYYKASKGKLPIKWMAPESINFRRFTSASDVWMFGVCMWEILMHGVKPFQGVKNNDVIGRIENGERLPMPPNCPPTLYSLMTKCWAYDPSRRPRFTELKAQLSTILEEEKAQQEERMRMESRRQATVSWDSGGSDEAPPKPSRPGYPSPRSSEGFYPSPQHMVQTNHYQVSGYPGSHGITAMAGSIYPGQASLLDQTDSWNHRPQEIAMWQPNVEDSTVLDLRGIGQVLPTHLMEERLIRQQQEMEEDQRWLEKEERFLKPDVRLSRGSIDREDGSLQGPIGNQHIYQPVGKPDPAAPPKKPPRPGAPGHLGSLASLSSPADSYNEGVKLQPQEISPPPTANLDRSNDKVYENVTGLVKAVIEMSSKIQPAPPEEYVPMVKEVGLALRTLLATVDETIPLLPASTHREIEMAQKLLNSDLGELINKMKLAQQYVMTSLQQEYKKQMLTAAHALAVDAKNLLDVIDQARLKMLGQTRPH
notes: Endogenous protein of the human cancer cell lines HCT116 and MCF7; lysates of formaldehyde-fixed cells were used for immunoprecipitation; also called PTK2
